According to article PMC11833123, “A bipartite bacterial virulence factor targets the complement system and neutrophil activation” (The EMBO Journal, 2025):

What was measured:
[1] = target: C0362, C-terminal part of TDE0362 with the Mac-like domain (205–647 aa) (Treponema denticola ATCC 35405) (UniProt Q73QT1); experiment: SEC; dimer fraction noted during SEC of purified C0362; column and buffer are not tied to this remark
[2] = target: T1, GST-CXCR1 (recombinant, from E. coli) (UniProt P25024 1-350); experiment: SPR; GST-CXCR1 coupled (EDC/NHS) to CM5 sensor chips, N0362 flowed over (0.05 or 0.1 µM to 3 µM), 25 °C, dPBS with 0.01% Tween 20, Reichert SR7500DC; kinetics globally fit to a one to two binding model, affinity model for saturation; settings: both partners purified
T1 construct: CXCR1 (Uniport entry P25024), full length, gene codon optimized and synthesized, cloned into pGEX-6P-1; also called CXCR1 from E.coli; recombinant GST-CXCR1; source: E. coli BL21, purified (Glutathione Agarose with 5% sarkosyl in the lysis buffer, SEC); not shown: GST, N-terminal, kept
T1 sequence: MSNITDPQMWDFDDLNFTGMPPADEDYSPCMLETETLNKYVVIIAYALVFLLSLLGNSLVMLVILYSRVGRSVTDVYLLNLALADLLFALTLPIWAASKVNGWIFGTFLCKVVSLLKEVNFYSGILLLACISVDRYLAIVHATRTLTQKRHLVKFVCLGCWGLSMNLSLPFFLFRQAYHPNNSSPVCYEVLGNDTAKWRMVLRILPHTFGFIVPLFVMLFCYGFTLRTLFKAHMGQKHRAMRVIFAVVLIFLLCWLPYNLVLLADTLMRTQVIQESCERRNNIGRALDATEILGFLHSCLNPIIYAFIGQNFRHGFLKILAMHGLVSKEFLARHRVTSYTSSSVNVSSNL

**Q.** For “C0362, C-terminal part of TDE0362 with the Mac-like domain (205–647 aa) (from UniProt Q73QT1 205-647) (enzyme)”, which fraction of the total material that was dimer [1] is on record?
**A.** 10%

B1: N0362, the N-terminus of TDE0362 (23–204 aa) (domain or fragment)
chain: KNNLLTKTEKEKSGEIPVKNIILSPNKSEFSLEKNTAQTITVKIIPEKATNKALIYSSKHGDIASIDNTGLITAKKEGRTIITIEASNGVKKTIDVIVTPEPIPVTNIEFEEEPPAFLFIGDVYIFKAKAKPDEATNRKLEYTTMTSDVISVTNTELGTMKATKEGNAAITIRSASTPSVAK
modifications: Alexa Fluor 488 label (only in the immunofluorescence on cells)
notes: TDE0362 of Treponema denticola ATCC 35405 (647 aa pre-protein), residues 23-204 with both bacterial Ig-like domains Big_1 and Big_2; Cloned in pET100/D-TOPO, which encodes the N-terminal 6xHis-tag; The same construct was used unlabelled (pull-down, ELISA, SPR) and labelled with Alexa Fluor 488 (cells); also called recombinant N0362; His-tagged N0362; source: E. coli BL21-CodonPlus (DE3)-RIL, …
**Q.** With B1 as the molecule, how does the Kd [2] read?
**A.** 264 ± 2.3 nM

**Q.** What about the koff [2] of the same molecule?
**A.** 0.000857 s⁻¹

**Q.** What about the kon [2] of the same molecule?
**A.** 4950 M⁻¹ s⁻¹
